Data from article PMC6108940 (Cell, 2018).

Columns and labels:
[1] = target: yeast COMPASS catalytic module (Set1-Swd1-Swd3-Bre2-Sdc1) (Kluyveromyces lactis, UniProt Q6CIT4); experiment: H3K4 methylation of nucleosomes, western blot; format: biochemical; details: 0.2 mM SAM, 1 uM enzyme, 0.5 uM nucleosomes, pH 7.5, 30 C, 30 min
[2] = target: K. lactis Sdc1 (crystallised construct) (K. lactis); experiment: crystal structure
[3] = target: K. lactis Bre2 (crystallised construct) (K. lactis); experiment: crystal structure

stoichiometry N [2]	stoichiometry N [3]	Compound	H3K4 methylation of nucleosomes, western blot [1]
–	–	C[S+](CC[C@H](N)C(=O)O)C[C@H]1O[C@@H](n2cnc3c(N)ncnc32)[C@H](O)[C@@H]1O (stereo partly drawn) [SAM]	alanine mutation of Trp197 drastically compromised the catalytic activity of Set1
2	2	K. lactis Sdc1 (crystallised construct) (natural protein)	–
